From the RNAGym collection of RNA variant scans (doi:10.1093/molbev/msab373) come the findings set out here.

Sequences and labels used below:
B1: Azoarcus group I ribozyme (parent)
chain: GUGCCUUGCGCCGGGAAACCACGCAAGGGAUGGUGUCAAAUUCGGCGAAACCUAAGCGCCCGCCCGGGCGUAUGGCAACGCCGAGCCAAGCUUCGGCGCCUGCGCCGAUGAAGGUGUAGAGACUAGACGGCACCCACCUAAGGCAAACGCUAUGGUGAAGGCAUAGUCCAGGGAGUGGCGAAAGUCACACAAACCGG

This data set covers variants of B1. The data set can be described thus: reverse-splicing fitness (ratio to wild type); higher = more active; in vitro selection; Mg2+ level not given. The procedure, abridged:
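An in vitro group I ribozyme library with randomized positions was T7-transcribed and gel-purified. In triplicate, 10 pmol RNA in EPPS pH 7.5 was reacted with 50 pmoles of a 30-nt RNA substrate for 1 h at 37 °C across several added MgCl2 levels (1–48 mM), then stopped with EDTA. Products were reverse transcribed from a substrate-complementary primer, PCR-amplified and sequenced (HiSeq 4000). Fitness is a variant's read proportion after selection over that before, normalised to wild type.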
For the variant GUGCCUUGCGCCGGGAAACCACGCAAGGGAUGGUGUCAAAUUCGGCGAAACCUAAGCGCCCGCCCGGGCGUAUGGCAACGCGGAGCCAAGCUUCGGCGCCUGCGCCGAUGCAGGUGUAGGGACUAGACGGCACCCACCUAAGGCAAACGAUAUGGUGAAGGCAUAGUCUAGGGAGGGGCGAAAGUCACACAAACCGG, the reverse-splicing fitness worked out at 0.00512. With GUGCCUUGCGCCGGGAAACCACGCAAGGGAUGGUGUCAAAUUCGGCGAAACCUAAGCGCCCGCCCGGGCGUAUGGCAACGCCGAGCCAAGCUUCGGCGCCUGCGCCGAUGCAGGUGUAGGGACUAGACGGCACCCACCUAAGGCAAACGGUAUGGUGAAGGCAUAGUCGAGGGAGUGGCGAAAGUCACACAAACCGG, the reverse-splicing fitness came out at 0.0183. Consider GUGCCUUGCGCCGGGAAACCACGCAAGGGAUGGUGUCAAAUUCGGCGAAACCUAAGCGCCCGCCCGGGCGUAUGGCAACGCUGAGCCAAGCUUCGGCGCCUGCGCCGAUGCAGGUGUAGGGACUAGACGGCACCCACCUAAGGCUAACGGUAUGGUGAAGGCAUAGUCUAGGGAGUGGCGAAAGUCACACAAACCGG, for which the reverse-splicing fitness turned out to be 0.00734. The figure for GUGCCUUGCGCCGGGAAACCACGCAAGGGAUGGUGUCAAAUUCGGCGAAACCUAAGCGCCCGCCCGGGCGUAUGGCAACGCGGAGCCAAGCUUCGGCGCCUGCGCCGAUGAAGGUGUAGCGACUAGACGGCACCCACCUAAGGCCAACGGUAUGGUGAAGGCAUAGUCUAGGGAGUGGCGAAAGUCACACAAACCGG is 0.0101. The figure for GUGCCUUGCGCCGGGAAACCACGCAAGGGAUGGUGUCAAAUUCGGCGAAACCUAAGCGCCCGCCCGGGCGUAUGGCAACGCCGAGCCAAGCUUCGGCGCCUGCGCCGAUGGAGGUGUAGAGACUAGACGGCACCCACCUAAGGCGAACGAUAUGGUGAAGGCAUAGUCGAGGGAGAGGCGAAAGUCACACAAACCGG is 0.0234; for GUGCCUUGCGCCGGGAAACCACGCAAGGGAUGGUGUCAAAUUCGGCGAAACCUAAGCGCCCGCCCGGGCGUAUGGCAACGCAGAGCCAAGCUUCGGCGCCUGCGCCGAUGUAGGUGUAGGGACUAGACGGCACCCACCUAAGGCAAACGCUAUGGUGAAGGCAUAGUCUAGGGAGUGGCGAAAGUCACACAAACCGG it is 0.00987. The figure for GUGCCUUGCGCCGGGAAACCACGCAAGGGAUGGUGUCAAAUUCGGCGAAACCUAAGCGCCCGCCCGGGCGUAUGGCAACGCCGAGCCAAGCUUCGGCGCCUGCGCCGAUGGAGGUGUAGUGACUAGACGGCACCCACCUAAGGCUAACGAUAUGGUGAAGGCAUAGUCUAGGGAGCGGCGAAAGUCACACAAACCGG is 0.00339. In the case of GUGCCUUGCGCCGGGAAACCACGCAAGGGAUGGUGUCAAAUUCGGCGAAACCUAAGCGCCCGCCCGGGCGUAUGGCAACGCCGAGCCAAGCUUCGGCGCCUGCGCCGAUGCAGGUGUAGGGACUAGACGGCACCCACCUAAGGCUAACGAUAUGGUGAAGGCAUAGUCCAGGGAGGGGCGAAAGUCACACAAACCGG, the reverse-splicing fitness was found to be 0.0043. GUGCCUUGCGCCGGGAAACCACGCAAGGGAUGGUGUCAAAUUCGGCGAAACCUAAGCGCCCGCCCGGGCGUAUGGCAACGCUGAGCCAAGCUUCGGCGCCUGCGCCGAUGGAGGUGUAGGGACUAGACGGCACCCACCUAAGGCUAACGAUAUGGUGAAGGCAUAGUCUAGGGAGCGGCGAAAGUCACACAAACCGG: the reverse-splicing fitness came to 0.0142.

With GUGCCUUGCGCCGGGAAACCACGCAAGGGAUGGUGUCAAAUUCGGCGAAACCUAAGCGCCCGCCCGGGCGUAUGGCAACGCAGAGCCAAGCUUCGGCGCCUGCGCCGAUGAAGGUGUAGUGACUAGACGGCACCCACCUAAGGCCAACGGUAUGGUGAAGGCAUAGUCAAGGGAGCGGCGAAAGUCACACAAACCGG, the reverse-splicing fitness is 0.00155. For GUGCCUUGCGCCGGGAAACCACGCAAGGGAUGGUGUCAAAUUCGGCGAAACCUAAGCGCCCGCCCGGGCGUAUGGCAACGCCGAGCCAAGCUUCGGCGCCUGCGCCGAUGUAGGUGUAGAGACUAGACGGCACCCACCUAAGGCGAACGUUAUGGUGAAGGCAUAGUCUAGGGAGCGGCGAAAGUCACACAAACCGG the value was 0.0314.

Turning to GUGCCUUGCGCCGGGAAACCACGCAAGGGAUGGUGUCAAAUUCGGCGAAACCUAAGCGCCCGCCCGGGCGUAUGGCAACGCUGAGCCAAGCUUCGGCGCCUGCGCCGAUGAAGGUGUAGGGACUAGACGGCACCCACCUAAGGCAAACGCUAUGGUGAAGGCAUAGUCUAGGGAGGGGCGAAAGUCACACAAACCGG, the reverse-splicing fitness is 0.0054.

GUGCCUUGCGCCGGGAAACCACGCAAGGGAUGGUGUCAAAUUCGGCGAAACCUAAGCGCCCGCCCGGGCGUAUGGCAACGCAGAGCCAAGCUUCGGCGCCUGCGCCGAUGGAGGUGUAGUGACUAGACGGCACCCACCUAAGGCAAACGUUAUGGUGAAGGCAUAGUCAAGGGAGUGGCGAAAGUCACACAAACCGG: the reverse-splicing fitness was 0.00487. Consider GUGCCUUGCGCCGGGAAACCACGCAAGGGAUGGUGUCAAAUUCGGCGAAACCUAAGCGCCCGCCCGGGCGUAUGGCAACGCUGAGCCAAGCUUCGGCGCCUGCGCCGAUGCAGGUGUAGUGACUAGACGGCACCCACCUAAGGCCAACGGUAUGGUGAAGGCAUAGUCGAGGGAGAGGCGAAAGUCACACAAACCGG, for which the reverse-splicing fitness amounted to 0.0028. In the case of GUGCCUUGCGCCGGGAAACCACGCAAGGGAUGGUGUCAAAUUCGGCGAAACCUAAGCGCCCGCCCGGGCGUAUGGCAACGCUGAGCCAAGCUUCGGCGCCUGCGCCGAUGCAGGUGUAGAGACUAGACGGCACCCACCUAAGGCUAACGUUAUGGUGAAGGCAUAGUCGAGGGAGGGGCGAAAGUCACACAAACCGG, the reverse-splicing fitness amounted to 0.00709.
